Results: the supplement of paper PMC10567573

B1: ZC3H15 (parent)
chain: RKADFKAGKALVISGREVFEFRPE
B2: COX4I1 (parent)
chain: FDKEWVAKQTKRMLDMKVNPIQGL

Variants of: B1
Test: protein stability index of a GFP-peptide fusion (GPS, HEK-293T) (PSI 1-6); higher = more stable
Settings: c terminus: a fixed tail appended
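Further: lentivirally expressed fusions sorted by FACS into six bins by GFP to DsRed ratio, PSI derived from sequencing read proportions per bin multiplied by bin number.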

Protein stability index, by site and new letter:
R16: P 3.27; E 3.7; Q 3.61; M 2.08; W 1.92; A 2.71; K 3.38; D 3.69; N 3.63; G 2.99; T 2.99; H 2.98; S 3.21; F 1.65; I 1.92; Y 1.54; L 2.42; C 1.89; V 1.91
K2: Y 2; D 3.43; T 3.06; G 3.3; H 2.46; F 2.06; R 2.78; M 2.33; L 1.76; I 1.92; N 3.24; C 1.85; P 2.75; E 2.81; S 3.02; A 3.43; V 2.49; Q 3.23; W 1.94
F5: H 3.77; Q 3.8; Y 3.16; L 3.93; C 3.55; W 2.48; T 3.59; V 3.6; D 3.77; K 3.47; N 3.38; G 4.05; M 2.85; A 3.91; E 4.18; S 3.77; I 2.94; R 3.76; P 3.25
V18: A 3.33; I 2.95; G 3.37; K 3.56; H 3.22; F 2.68; E 3.89; D 3.69; C 2.95
A10: M 2.09; P 3.73; K 2.47; C 2.12; F 1.53; D 3.5; Q 3.17; W 2.97; T 2.88; V 2.49; G 2.86; Y 1.92; S 2.86; R 3.09; N 3.16; I 2.09; H 2.75; E 2.97; L 2.09
A7: K 3.67; V 2.91; I 2.66; P 3.2; E 2.86; Y 2.18; T 3.12; M 2.46; L 2.08; Q 2.93; F 2.21; G 2.86; C 2.35; D 3.12; N 3.11; W 1.71; R 2.85; S 3.26; H 2.75
D4: N 2.03; M 2.54; G 2.42; E 2.64; V 2.2; T 1.98; F 1.98; A 2.36; H 2.15; S 2.55; I 2.27; K 2.53; L 1.91; C 1.79; W 1.73; Q 2.73; R 2.55; Y 2.12; P 2.36
K9: F 1.7; E 3.11; W 1.87; C 2.33; A 3.02; P 2.78; Y 1.05; D 3.18; V 2.48; M 2.31; Q 2.65; H 2.93; S 3.16; G 2.28; N 3.16; R 2.31; I 1.57; T 3.04; L 1.99
A3: N 3.11; P 2.95; S 2.68; M 2.75; E 3.77; K 3.12; H 2.44; F 2.23; C 2.09; G 3.13; L 2.57; I 2.71; Y 2.52; D 3.7; R 2.85; T 3.24; V 2.61; W 2.51; Q 3.06
R1: K 3.32; F 2.01; E 3.5; N 3.23; V 2.02; W 2.53; Q 2.99; H 3.44; A 3.21; C 1.91; T 3.22; Y 2.81; D 3.7; M 2.71; I 1.58; G 2.95; L 2.43; P 3.19; S 2.9
L11: Q 3.66; I 2.72; S 3.69; G 3.46; H 3.36; V 3.11; W 2.55; T 3.76; M 2.84; N 4.1; F 2.65; K 3.77; Y 2.29; A 3.06; C 3.09; D 3.69; E 3.78; R 2.95; P 3.54
K6: G 2.4; A 2.71; F 1.79; M 2.36; H 2.6; R 2.29; L 2.29; C 2.79; I 2.42; Q 2.44; S 2.82; P 2.72; Y 2.87; V 3.03; E 3.24; N 3.22; W 2.4; D 3.75; T 2.99
G15: F 2.27; R 2.73; K 3.14; V 2.06; W 1.37; M 2.04; Q 2.92; E 3.65; S 3.18; N 3.4; T 2.93; D 3.38; L 1.81; I 2.37; C 2.07; P 3.37; H 2.2; Y 1.85; A 2.64
V12: P 3.82; C 2.89; D 4.03; F 2.39; T 2.68; W 2.4; Y 2.73; S 3.47; R 3.31; G 3.17; Q 3.15; K 2.91; N 3.93; M 3.26; I 2.85; H 3.52; A 3.23; E 3.49; L 2.42
I13: S 3.8; E 4.28; Q 3.72; N 3.95; H 3.13; T 3.21; R 3.89; W 2.8; D 4.17; P 3.48; Y 2.77; M 3.26; G 4; C 3.2; F 2.32; L 3.55; A 3.86; K 3.79; V 3.51
E17: S 2.06; Y 2.19; V 2.25; Q 1.96; W 2.12; A 1.47; H 1.9; N 2.57; I 1.64; K 2.08; L 2.04; F 2.17; G 2.3; M 1.14; C 1.71; P 2.66; R 2.67; D 2.88; T 1.75
G8: W 1.79; C 2.14; K 3.24; Y 1.74; M 2.59; H 2.66; Q 2.85; D 3.31; T 2.78; L 1.92; A 2.94; E 2.99; V 2.16; R 2.52; I 2.23; P 2.65; S 2.7; N 3.3; F 1.93
S14: C 1.21; W 1.87; D 3.82; R 2.56; N 2.66; T 2.98; H 3.31; G 3.11; M 2.49; V 1.43; F 1.23; K 3.32; Q 2.81; L 1.57; I 1.93; Y 2.39; A 2.86; E 3.67; P 3.44

Variants of: B2
Test: as above
Settings: c terminus: a fixed tail appended

Protein stability index: each site, then its substitutions
E4: M 1.26
D2: Y 1.76
